Patent US20110159050A1, “AMPHIPHILIC PROTEINS AS MORPHOLOGY MODIFIERS” (BASF SE, priority 2008, published 2011)
Entries after “also recorded” stand apart in the source; their conditions may differ.

B1: SC: class I hydrophobin from Schizophyllum commune, produced recombinantly in E. coli (protein, UniProt P16933 25-136, looked up)
Class I hydrophobin SC3: GGHPGTTTPPVTTTVTVTTPPSTTTIAAGGTCTTGSLSCCNQVQSASSSPVTALLGLLGIVLSDLNVLVGISCSPLTVIGVGGSGCSAQTVCCENTQFNGLINIGCTPINIL
modifications: recombinant in E. coli
B2: PO: class I hydrophobin from Pleurotus ostreatus, produced recombinantly in E. coli (protein, UniProt O60048 22-113, looked up)
Class I hydrophobin POH3: IPRTNPPAPTCTTGSLQCCNSVQAASNPVVGLLAGLLGIVLGPITGQVGLTCSPITVIGVGGTSCSAQTVCCNGNSFNGLIVVGCSPVNISL
modifications: recombinant in E. coli

What was measured:
[1] = from 72; at 50 microgram/ml; cited from earlier work
[2] = Crystallisation of Atorvastatin by evaporation in dishes, microscopic inspection; assay type: physicochemical; details: Atorvastatin in water/acetonitrile, 100 ppm hydrophobin, vs hydrophobin-free control
Method: a) 15 g of Atorvastatin (Ciba) are dissolved in 75 mL pure water and 75 mL acetonitrile by heating to 50° C. and stirring for 2 h. The resulting solution is filtered (0.45 μm). Aliquots of 10 mL are transferred into 15 mL sealable polypropylene tubes that have been pre-heated to 50° C. in order to prevent the onset of crystallization. To assure uniform temperature, the tubes are shaken for 15-30 min at 50° and 750 rpm on a thermomixer (Eppendorf Thermomixer Comfort), then 100 μL of the protein solution (prepared according to the method given in example 1) is added (final concentration: 100 ppm). Control samples are treated in the same way except that 100 μL of pure water are added instead of the hydrophobin solution, or no API is present.
1 mL of each sample is poured into dishes (Ø5 cm) in order to allow crystallization by evaporation. The dried crystals (˜20 h later) are microscopically inspected.

[3] = Crystallisation and redispersion of Venlafaxine (IPA, visual assessment); assay type: physicochemical; details: for re-suspension on pouring after vigorous shaking (Vortex) for 10-15 sec: Venlafaxine crystallized over night; for (RT) dispersability: Venlafaxine crystals
Method: 15 g of Venlafaxine (Ciba) are dissolved in 150 mL IPA. Aliquots of 10 mL of the resulting solution are transferred into 15 mL sealable polypropylene tubes that have been pre-heated to 95° C. To assure uniform temperature, the tubes are agitated for 15-30 min at 80° and 750 rpm on a thermomixer (Eppendorf Thermomixer Comfort), then 100 μL of the protein solution (prepared according to the method given in example 1) is added. Control samples are treated in the same way except that 100 μL of pure water are added instead of the hydrophobin solution, or no API is present.
(§1) The results of a visual assessment after the hydrophobin injection (final concentration in the sample is 100 ppm) are compiled in the following table.
The mother liquor crystallizes completely over night, with crystals adhering together covered by the solvent.

[4] = Crystallisation of benzamide in presence of SC, PO, TT or TR (cooling, visual assessment); assay type: physicochemical; details: 100 ppm protein
Method: (§2) 15 g of benzamide (Fluke) are dissolved in 150 mL pure water. Aliquots of 10 mL of the resulting solution are transferred into 15 mL sealable polypropylene tubes that have been pre-heated to 95° C. in order to prevent the onset of crystallization. To assure uniform temperature, the tubes are shaken for 15-30 min at 95° and 750 rpm on a thermomixer (Eppendorf Thermomixer Comfort), then 100 μL of the hydrophobin solution (prepared according to the method given in example 1) is added (the tubes are still shaken to allow homogeneous mixing and tempering). After 1-2 min the tubes are withdrawn from the thermomixer to allow cooling without shaking at RT. Control samples are treated in the same way except that 100 μL of pure water are added instead of the hydrophobin solution, or no API is present.
as §1

[5] = Crystallisation of paracetamol in presence of hydrophobins (cooling from 95° C. to RT, visual assessment); assay type: physicochemical; details: 100 ppm protein; for visual assessment after 0 min (protein without API; no clouding = no denaturation): no API present, 95° C.; for visual assessment after 0 min / visual assessment <5 min: paracetamol present; for visual assessment after 0 min: after injection at 95° C.; for visual assessment <5 min: cooling at RT
Method: The hydrophobin solution is prepared by solubilization of 10 mg of lyophilized powder (protein content at least 60-80%) in 1 mL pure water. Insoluble residues are removed by centrifugation.
as §2, with “API (Paracetamol, Sigma)” for “benzamide (Fluke)”, “ensure” for “assure”, “solution” for “solution (prepared according to the method given in example 1)”, “under continued” for “(the tubes are still shaken to allow homogeneous”, “at 95° C.; final protein concentration in the sample is 100 ppm.” for “and tempering).”

[6] = Atorvastatin crystallisation by evaporation on protein-coated object slides; assay type: physicochemical; details: object slides coated with protein (100 μg protein/mL over night), vs non-coated control
Method: b) In a further set of tests, object slides are coated with protein by incubation in a solution as prepared according to the method given in example 1 (100 μg protein/mL) over night. The object slides then are washed and air dried before 50 μL of Atorvastatin solution as described above is coated on the slide.

[7] = Venlafaxine in IPA, 100 ppm protein

Molecule | crystal growth after crystallization by evaporation [2] | re-suspension on pouring after vigorous shaking (Vortex) for 10-15 sec [3] | (RT) dispersability [3] | visual assessment 120 min [3, 7] | visual assessment after 0 min [3, 7] | crystal size 15 min [4] | crystal size <5 min [4] | crystal size >20 h [4] | visual assessment <5 min [4] | visual assessment after 0 min [4] | visual assessment after 0 min (protein without API; no clouding = no denaturation) [5] | visual assessment after 0 min [5] | visual assessment <5 min [5] | crystal size 15 min ([5]; paracetamol) | crystal size >20 h ([5]; paracetamol) | crystal growth by evaporation on coated glass surface [6] | other results
B1 | more evenly crystal growth | complete emptying of the tubes | Best dispersability and best | crystals | streaks | crystals 0.1-0.2 mm | 0.1-0.2 mm | crystals 0.5-1 mm | few crystals | clouding | clear | streaks | clear | cryst. 0.1-0.2 mm | crystals 0.5 mm | more regular crystal growth; also recorded: more evenly crystal growth | maximal lowering of the water surface tension [1]: 24 mJ m^−2; visual assessment 20 min [3, 7]: clear; visual assessment <5 min [3, 7]: clear
B2 | more evenly crystal growth | predominantly the remaining mother liquor is poured out | poor | crystals | clouding | crystals 0.2-0.5 mm | 0.2-0.5 mm | crystals 0.5-1 mm | few crystals | clouding | clear | clouding | few crystals | cryst. 0.2-0.5 mm | crystals 0.5-1 mm | more regular crystal growth; also recorded: more evenly crystal growth | crystal size 20 min [3, 7]: crystals 0.2 mm; crystal size <5 min [3, 7]: crystals 0.1 mm; crystal size <5 min ([5]; paracetamol): 0.2-0.5 mm
